In patent US10202593B2, “Evolved sortases and uses thereof” (President and Fellows of Harvard College, priority 2013, dated 2019):
“And” between values parts separate entries of the source, which are not always exact repeats. Equal entries are not always repeated. Where two headings read alike, the source gives them in different places.

Assays:
Assay type in all cases: biochemical
[1] = system: LPECG; assay: In vitro sortase kinetics HPLC assay, LPECG substrate
Experimental: (§1) See below for details on sortase expression and purification, and on the synthesis of Abz-LPETGK(Dnp)-CONH2 (SEQ ID NO: 19). […] Reactions were initiated with the addition of enzyme and incubated at 22.5° C. for 3 to 20 minutes before quenching with 0.5 volumes of 1 M HCl. Five to ten nmol of peptide from the quenched reactions were injected onto an analytical reverse-phase Eclipse XDB-C18 HPLC column (4.6×150 mm, 5 μm, Agilent Technologies) and chromatographed using a gradient of 10 to 65% acetonitrile with 0.1% TFA in 0.1% aqueous TFA over 13 minutes. Retention times under these conditions for the Abz-LPETGK(Dnp)-CONH2 (SEQ ID NO: 19) substrate, the released GKDnp peptide, and the Abz-LPETGGG-COOH (SEQ ID NO: 20) product were 12.8, 10.4, and 9.1 min, respectively. To calculate the percent conversion, the ratio of the integrated areas of the Abz-LPETGGG-COOH (SEQ ID NO: 20) and Abz-LPETGK(Dnp)-CONH2 (SEQ ID NO: 19) peptide Abs220 peaks was compared to a standard curve generated by mixing the product and starting peptide in known ratios. To determine […] and Km, reaction rates were fit to the Michaelis-Menten equation using OriginPro 7.0 software. All kinetics values reported represent the average of at least three measurements. Percent conversion was also calculated by using the ratio of the integrated areas of the GK(Dnp)-CONH2 and Abz-LPETGK(Dnp)-CONH2 peptide Abs355 peaks were compared directly (Example 5). To determine kcat and Km, LPETG, reaction rates were fit to the Michaelis-Menten equation using Microsoft Excel using the Solver add-in. To determine Km,GGG and KH, reaction rates were fit to the modified Michaelis-Menten, for which KH is as defined when KH<<Km,GGG.
(§2) Assays to determine eSrtA, eSrtA(2A-9) and eSrtA(4S-9) specificity were performed by preparing 10 μM stocks of Abz-LXEXGK(Dnp) (SEQ ID NO: 75) peptides in 300 mM Tris pH 7.5, 150 mM NaCl, 5 mM CaCl2, 5% v/v DMSO, and 100 mM Gly-Gly-Gly-COOH (GGG). Reactions were performed by adding eSrtA(2A-9) to a final concentration of 450 nM, eSrtA(4S-9) to a final concentration of 115 nM or eSrtA to a final concentration of 47.5 nM and a final volume of 100 μL, then incubating at 22.5° C. for 15 minutes. Reactions were quenched by the addition of 0.2 volumes of 5 M HCl, then were injected onto an analytical reverse-phase Eclipse XDB-C18 HPLC column (4.6×150 mm, 5 μm, Agilent Technologies) and chromatographed using a gradient of 10 to 65% acetonitrile with 0.1% TFA in 0.1% aqueous TFA over 13 minutes. Retention times under these conditions for the Abz-LPETGK(Dnp)-CONH2 (SEQ ID NO: 19) substrate, the released GKDnp peptide, and the Abz-LPETGGG-COOH (SEQ ID NO: 20) product were 12.8, 10.4, and 9.1 min, respectively, while the remaining Abz-LXEXGK(Dnp)-CONH2 (SEQ ID NO: 74) substrates varied in retention time between 9 and 13 minutes. To calculate the percent conversion, the ratio of the integrated areas of the GK(Dnp)-CONH2 and Abz-LPETGK(Dnp)-CONH2 (SEQ ID NO: 19) peptide Abs355 peaks were compared directly. Subsequent determination of kcat/Km and KH were performed as described for in vitro SrtA characterization.
The original pentamutant comprising the mutations P94R, D160N, D165A, K190E, and K196T is referred to as eSrtA. Sortase variants herein were evolved using eSrtA as the parent enzyme in the evolution experiments. In some cases, an evolved sortase comprises a N160K mutation instead of a D160N or a T196S mutation instead of a K196T. Parameters are reported with their standard deviations as determined from three technical replicates. kcat, Km and kcat/Km parameters were determined at 100 mM GGG concentration, while Km,GGG and KH parameters were determined at 1 mM concentration of the listed substrate.

[2] = system: LPETG (Abz-LPETGK(Dnp)-CONH2); assay: In vitro sortase kinetics HPLC assay, LPETG substrate; settings: for KN: eight GGG concentrations; for KH,LPETG: LPETG substrate; for Rel. Activity: kcat/Km of the enzyme's preferred substrate relative to kcat/Km on this substrate
Method in brief: (§3)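 Abz-LXEXGK(Dnp) peptides in 300 mM Tris pH 7.5, 150 mM NaCl, 5 mM CaCl2, 5% DMSO, GGG; 22.5° C., acid-quenched, converted fraction by reverse-phase HPLC peak areas. kcat and Km from eight substrate concentrations fit to Michaelis-Menten; KH at 1 mM substrate over eight GGG levels.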

[3] = system: LAETG (Abz-LAETGK(Dnp)-CONH2); assay: In vitro sortase kinetics HPLC assay, LAETG substrate; settings: for KN: eight GGG concentrations; for Rel. Activity: kcat/Km of the enzyme's preferred substrate relative to kcat/Km on this substrate
Experimental: as §1, §2
In each case, rate constants were determined by measuring enzyme velocity at eight different substrate concentrations by HPLC assay, then fit using nonlinear regression to the Michaelis-Menten equation, yielding kcat and Km. KH was calculated by measuring enzyme velocity at 1 mM target substrate and eight different GGG concentrations by HPLC assay, then fitting the resulting curves using nonlinear regression to the modified Michaelis-Menten equation.

[4] = system: LPESG (Abz-LPESGK(Dnp)-CONH2); assay: In vitro sortase kinetics HPLC assay, LPESG substrate; settings: for Rel. Activity: kcat/Km of the enzyme's preferred substrate relative to kcat/Km on this substrate
Method in brief: as §3

[5] = Sub LPETG, 100 mM GGG, read-out: Km
[6] = Table 2, Sub LPETG, read-out: Km
[7] = Sub LAETG, 100 mM GGG, read-out: Km
[8] = Table 2, Sub LAETG, read-out: Km
[9] = Sub LPESG, 100 mM GGG, read-out: Km
[10] = Table 2, Sub LPESG, read-out: Km
[11] = GGG varied, substrate 2A (LAETG)

B1: eSrtA (protein)
chain: QAKPQIPKDKSKVAGYIEIPDADIKEPVYPGPATREQLNRGVSFAEENESLDDQNISIAGHTFIDRPNYQFTNLKAAKKGSMVYFKVGNETRKYKMTSIRNVKPTAVEVLDEQKGKDKQLTLITCDDYNEETGVWETRKIFVATEVK
activity for LPECG compared with LPETG [1]: exceeds that of LPETG
KH ([1]; 1 mM LPECG): 620 ± 150 µM
Km ([1]; 1 mM LPECG, read-out: Km,GGG): 57000 ± 33000 µM
Kcat (Hz) ([1]; Sub LPECG, 100 mM GGG): 3.5 ± 0.3 Hz
Km ([1]; Sub LPECG, 100 mM GGG, read-out: Km): 72.5 ± 5.6 µM
KH ([2]; 1 mM LPETG): 32.8 ± 2.4 µM
KN ([2]; 1 mM LPETG): 32.8 ± 2.4 µM
Km ([2]; 1 mM LPETG, read-out: Km,GGG): 1617 ± 13 µM
Khydrolysis ([2]; 1 mM wt (LPETG) substrate): 22.59 µM
kcat, 1 mM LxExG (Hz) ([2]; 1 mM wt (LPETG) substrate, GGG varied): 7.245 Hz
Km ([2]; 1 mM wt (LPETG) substrate, read-out: Km, GGG): 2990 µM
KH,LPETG [2]: 32.8 ± 2.4 µM
Kcat (Hz) ([2]; Sub LPETG, 100 mM GGG): 5.4 ± 0.4 Hz
Km [2, 5]: 230 ± 20 µM
Rel. Activity ([2]; Sub LPETG): 1
Kcat (Hz) ([2]; Table 2, Sub LPETG): 5.4 ± 0.4 Hz
Km [2, 6]: 230 ± 20 µM
kL/KL/KH ([2]; substrate wt (LPETG)): 1.20E+09
kHydrolysis (Hz) ([2]; substrate wt (LPETG), 1 mM, GGG varied): 0.05546 Hz
kcat, 10 mM GGG (Hz) ([2]; substrate wt (LPETG), 10 mM GGG): 5.622 Hz
Km ([2]; substrate wt (LPETG), read-out: Km, LxExG): 208 µM
KH ([3]; 1 mM LAETG): 26.5 ± 0.6 µM
KN ([3]; 1 mM LAETG): 26.5 ± 0.6 µM
Km ([3]; 1 mM LAETG, read-out: Km,GGG): 807 ± 56 µM
Kcat (Hz) ([3]; Sub LAETG, 100 mM GGG): 1.31 ± 0.26 Hz
Km [3, 7]: 6070 ± 870 µM
Rel. Activity ([3]; Sub LAETG): 103.3
Kcat (Hz) ([3]; Table 2, Sub LAETG): 1.31 ± 0.26 Hz
Km [3, 8]: 6070 ± 870 µM
preference for LPETG over LAETG ([3]; ratio of kcat/KM): 103 fold
specificity (relative cat. Efficiency, fold) ([3]; ratio of kcat/Km between 2A (LAETG) and wt (LPETG) substrates, favoured over disfavoured): 122.6 fold
kcat, 10 mM GGG (Hz) ([3]; substrate 2A (LAETG), 10 mM GGG): 1.316 Hz
Km ([3]; substrate 2A (LAETG), read-out: Km, LxExG): 6160 µM
KH ([4]; 1 mM LPESG): 76 ± 19 µM
KN ([4]; 1 mM LPESG, eight GGG concentrations): 76 ± 19 µM
Km ([4]; 1 mM LPESG, read-out: Km,GGG): 22000 ± 900 µM
Kcat (Hz) ([4]; Sub LPESG, 100 mM GGG): 1.46 ± 0.13 Hz
Km [4, 9]: 318 ± 58 µM
Rel. Activity ([4]; Sub LPESG): 4.9
Kcat (Hz) ([4]; Table 2, Sub LPESG): 1.46 ± 0.13 Hz
Km [4, 10]: 318 ± 58 µM
kcat, 10 mM GGG (Hz) ([4]; substrate 4S (LPESG), 10 mM GGG): 1.74 Hz
Km ([4]; substrate 4S (LPESG), read-out: Km, LxExG): 672 µM

B2: eSrtA(2A-9): P94R, S102C, A104H, E105D, K138P, K152I, N160K, K162H, T164N, D165A, K173E, I182V, K190E, T196S (protein)
chain: QAKPQIPKDKSKVAGYIEIPDADIKEPVYPGPATREQLNRGVCFHDENESLDDQNISIAGHTFIDRPNYQFTNLKAAKPGSMVYFKVGNETRIYKMTSIRKVHPNAVEVLDEQEGKDKQLTLVTCDDYNEETGVWESRKIFVATEVK
KH ([2]; 1 mM LPETG): 27.1 ± 0.1 µM
KN ([2]; 1 mM LPETG): 27.1 ± 0.1 µM
Km ([2]; 1 mM LPETG, read-out: Km,GGG): 585 ± 3 µM
Avg kcat (Hz) ([2]; Example 5 variants, substrate wt (LPETG)): 0.02091 Hz
Km ([2]; Example 5 variants, substrate wt (LPETG), read-out: Avg KM): 1270 µM
KH,LPETG [2]: 18.7 ± 3.3 µM
Kcat (Hz) ([2]; Sub LPETG, 100 mM GGG): 0.0209 ± 0.004 Hz
Km [2, 5]: 1270 ± 62 µM
Rel. Activity ([2]; Sub LPETG): 510
Kcat (Hz) ([2]; Table 2, Sub LPETG): 0.0209 ± 0.0004 Hz
Km [2, 6]: 1270 ± 62 µM
activity on LPETG ([2]; round 9 clones): minimally active on LPETG
preference for LAETG over LPESG [3]: > 1000 :1
KH ([3]; 1 mM LAETG): 33 ± 4 µM
KN ([3]; 1 mM LAETG): 33 ± 4 µM
Km ([3]; 1 mM LAETG, read-out: Km,GGG): 1480 ± 190 µM
Avg kcat (Hz) ([3]; Example 5 variants, substrate 2A (LAETG)): 2.23 Hz
Km ([3]; Example 5 variants, substrate 2A (LAETG), read-out: Avg KM): 265 µM
Avg kHydro (Hz) [3, 11]: 0.03506 Hz
Avg kcat (Hz) [3, 11]: 1.587 Hz
Km ([3]; KM for GGG, substrate 2A (LAETG), read-out: Avg KM): 1480 µM
Kcat (Hz) ([3]; Sub LAETG, 100 mM GGG): 2.23 ± 0.02 Hz
Km [3, 7]: 265 ± 9 µM
Rel. Activity ([3]; Sub LAETG): 1
Kcat (Hz) ([3]; Table 2, Sub LAETG): 2.23 ± 0.02 Hz
Km [3, 8]: 265 ± 9 µM
change in specificity for LAETG versus LPETG relative to eSrtA ([3]; ratio of (kcat/KM)target to (kcat/KM)LPETG, relative to eSrtA): 51,000 fold
preference for LAETG over LPETG ([3]; ratio of kcat/KM): ~500 fold and 510 fold
Specificity (relative catalytic efficiency, fold) ([3]; ratio of kcat/KM between 2A (LAETG) and wt (LPETG)): 509.8 fold
Avg KH ([3]; substrate 2A (LAETG)): 32.79 µM
activity on LPESG [4]: negligible activity
Kcat (Hz) ([4]; Sub LPESG, 100 mM GGG): 0.0066 ± 0.0006 Hz
Km [4, 9]: 4800 ± 1200 µM
Rel. Activity ([4]; Sub LPESG): 5943
Kcat (Hz) ([4]; Table 2, Sub LPESG): 0.0066 ± 0.0006 Hz
Km [4, 10]: 4800 ± 1200 µM
